Source: paper PMC8299502

T1: Dazl(RRM) (Mus musculus, UniProt Q64368 32-117)
T1 sequence: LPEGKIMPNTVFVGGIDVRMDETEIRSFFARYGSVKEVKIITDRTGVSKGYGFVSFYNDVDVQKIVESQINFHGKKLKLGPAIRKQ

T2: RbFox(RRM) (UniProt Q9NWB1 109-208)
T2 sequence: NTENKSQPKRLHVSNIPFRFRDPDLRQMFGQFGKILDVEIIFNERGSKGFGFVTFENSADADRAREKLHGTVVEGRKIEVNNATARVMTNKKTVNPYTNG


What was measured:
[1] = biological target: T1, Dazl(RRM); assay: fluorescence anisotropy
[2] = biological target: T2, RbFox(RRM); assay: fluorescence anisotropy

Binder | binding result [1] | binding result [2]
UUGUUCUUU (ssRNA) [Dazl cognate RNA] | binds | 
UCCUGCAUGUUUA (ssRNA) [RbFox cognate RNA] |  | binds
